The supplement of paper PMC7877785
± gives the uncertainty stated by the source.

Test: self-splicing fitness, log relative to wild type (ln ratio); higher = more splicing; Tetrahymena group I intron in knt gene, E. coli kanamycin selection, DiMSum; sequences stand for … in CUCUCU…GGAGGGAAAAGUUAUCAGGCAUGCACCUGGUAGCUAGUCUUUAAACCAAUAGAUUGCAUCGGUUUAAAAGGCAAGACCGUCAAAUUGCGGGAAAGGGGUCAACAGCCGUUCAGUACCAAGUCUCAGGGGAAACUUUGAGAUGGCCUUGCAAAGGGUAUGGUAAUAAGCUGACGGACAUGGUCCUAACCACGCAGCCAAGUCCUAAGUCAACAGAUCUUCUGUUGAUAUGGAUGCAGUUCACAGACUAAAUGUCGGUCGGGGAAGAUGUAUUCUUCUCAUAAGAUAUAGUCGGACCUCUCCUUAAUGGGAGCUAGCGGAUGAAGUGAUGCAACACUGGAGCCGCUGGGAACUAAUUUGUAUGCGAAAGUAUAUUGAUUAGUUUUGGAGUACUCGUGGUCG
Summary of the method: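 Pooled colonies went to amplicon sequencing on an Illumina HiSeq 2500 after six replicate transformations. The plates were LB agar with 100 μg/mL carbenicillin, 50 μM IPTG and 0.2% rhamnose, with or without 25 μg/mL kanamycin, incubated overnight at 37°C or 30°C. The E. coli BL21(DE3) library had all eight P1ex-region intron nucleotides randomised, the intron placed in the knt kanamycin-resistance gene on pET-22b(+). DiMSum fitness is the error-weighted combination of replicate fold changes, kanamycin against none, normalised to wild type.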

Row | Sequence | self-splicing fitness (ln) (30 °C) | self-splicing fitness (ln) (37 °C)
1 | CGCGAGCAAUAUUACGAACU | -1.75 ± 0.18 | -0.234 ± 0.23
2 | AACAAGCAAUAUUACGAAAC | -3.9 ± 0.23 | -2.33 ± 0.27
3 | AUCUAGCAAUAUUACGGUGC | -3.09 ± 0.22 | -1.4 ± 0.21
4 | AUGGAGCAAUAUUACGAUAG | -3.59 ± 0.4 | -1.67 ± 0.32
5 | GCAGAGCAAUAUUACGGGGG | -3.1 ± 0.34 | -3.56 ± 0.39
6 | AGGUAGCAAUAUUACGUGCU | -0.841 ± 0.014 | -0.391 ± 0.033
7 | ACAGAGCAAUAUUACGCGCC | -3.3 ± 0.36 | -1.83 ± 0.42
8 | UACUAGCAAUAUUACGGCCA | -0.179 ± 0.15 | 0.376 ± 0.16
9 | AUAUAGCAAUAUUACGCUCC | -0.958 ± 0.25 | -0.476 ± 0.32
10 | AUACAGCAAUAUUACGCGUG | -0.923 ± 0.063 | -0.481 ± 0.082
11 | CUAGAGCAAUAUUACGUAGC |  | -1.49 ± 0.27
12 | GUUCAGCAAUAUUACGGUUU | -0.523 ± 0.052 | -0.0386 ± 0.061
13 | CCGAAGCAAUAUUACGUCAG | -1.47 ± 0.071 | -0.198 ± 0.11
14 | UCGCAGCAAUAUUACGCCUA | -1.21 ± 0.13 | 0.0885 ± 0.14
15 | UACGAGCAAUAUUACGAAAG | -2.75 ± 0.42 | -1.29 ± 0.45
16 | UCUGAGCAAUAUUACGGCAC | -4.07 ± 0.47 | -1.06 ± 0.28
17 | AAACAGCAAUAUUACGCUCA | -0.43 ± 0.081 | 0.168 ± 0.1
18 | UACUAGCAAUAUUACGCUGC |  | -3.01 ± 0.43
19 | CUUCAGCAAUAUUACGCUUG | -2.94 ± 0.14 | -1.22 ± 0.12
20 | AUCUAGCAAUAUUACGCACC | -0.201 ± 0.21 | -0.886 ± 0.38
21 | AUCUAGCAAUAUUACGGAUG | -2.12 ± 0.12 | 0.0806 ± 0.12
22 | AGGAAGCAAUAUUACGCCCA | -0.363 ± 0.42 | 1.47 ± 0.39
23 | CACCAGCAAUAUUACGUAGC | -4.18 ± 0.17 | -2.41 ± 0.14
24 | CAUAAGCAAUAUUACGUAGC | -3.15 ± 0.17 | -2.96 ± 0.2

Row | Sequence | self-splicing fitness (ln) (30 °C) | self-splicing fitness (ln) (37 °C)
25 | CUUAAGCAAUAUUACGCGGU | -2.59 ± 0.14 | -2.35 ± 0.22
26 | GGGAAGCAAUAUUACGCGUC | -3.64 ± 0.3 | -2.86 ± 0.47
27 | UAUUAGCAAUAUUACGUAUU | -3.62 ± 0.17 | -1.25 ± 0.14
28 | ACCGAGCAAUAUUACGUCGA | -3.13 ± 0.24 | -2.12 ± 0.15
29 | UUCAAGCAAUAUUACGGGUA | -0.67 ± 0.085 | -0.182 ± 0.08
30 | CACCAGCAAUAUUACGUUAU | -3.86 ± 0.12 | -3.32 ± 0.15
31 | UGACAGCAAUAUUACGGCCU | -0.801 ± 0.068 | 0.131 ± 0.078
32 | AUCCAGCAAUAUUACGUCCA | -1.22 ± 0.11 | -0.412 ± 0.12
33 | UACAAGCAAUAUUACGACCA | -0.29 ± 0.12 | -0.203 ± 0.16
34 | UAAAAGCAAUAUUACGCCUA | 0.161 ± 0.073 | -0.367 ± 0.081
35 | UAGUAGCAAUAUUACGGUAU | -2.55 ± 0.24 | -2.39 ± 0.35
36 | CGCUAGCAAUAUUACGAGCC | -1.23 ± 0.2 | -0.554 ± 0.17
37 | UGGUAGCAAUAUUACGGUGG | -3.53 ± 0.2 | -1.94 ± 0.14
38 | CGCCAGCAAUAUUACGACAC | -2.92 ± 0.25 | -1.65 ± 0.26
39 | GAAUAGCAAUAUUACGCACU | -0.269 ± 0.089 | 0.18 ± 0.11
40 | UGGCAGCAAUAUUACGCGCU |  | -2.45 ± 0.49
41 | AGUAAGCAAUAUUACGAUCC | -0.71 ± 0.097 | 0.236 ± 0.15
42 | AUAUAGCAAUAUUACGCUUC | -2.84 ± 0.38 | -2.86 ± 0.43
43 | CAGCAGCAAUAUUACGAUCA | -2.71 ± 0.2 | -1.88 ± 0.21
44 | UCGAAGCAAUAUUACGUAUA | -3.1 ± 0.22 | -1.58 ± 0.18
45 | CUCAAGCAAUAUUACGGGGU | -3.4 ± 0.15 | -3.44 ± 0.19
46 | UCGUAGCAAUAUUACGCCAU |  | -0.949 ± 0.45
47 | GUGCAGCAAUAUUACGUAAU | -0.833 ± 0.06 | 0.129 ± 0.079
48 | GUUUAGCAAUAUUACGCUCC | -1.82 ± 0.37 | 1.01 ± 0.34
